{
  "source": "patent US20250340657A1",
  "about": "(CANTARGIA, published 2025)",
  "binders": {"B1": {"name": "hCAN04 Variant 6 (antibody, human IgG1, kappa, V domains shown)", "VH": "QVQLVQSGAEVKKPGSSVKVSCKASGYAFTSSWMNWVRQAPGQGLEWMGRIYPGDGNTHYAQKFQGRVTLTADKSTSTAYMELSSLRSEDTAVYYCGEGYLDPMDYWGQGTLVTVSS", "VL": "DIQMTQSPSSLSASVGDRVTITCQASQGINNYLNWYQQKPGKAPKLLIHYTSGLHAGVPSRFSGSGSGTDYTLTISSLEPEDVATYYCQQYSILPWTFGGGTKVEIKR", "notes": "Human IgG1za / kappa, expressed in CHOK1SV cells; also called Var6; humanized variant 6 of CAN04"}, "B2": {"name": "hCAN04 Variant 3 (antibody, human IgG1, kappa, V domains shown)", "VH": "B1 VH with A28T, Q43K, N57Q", "VL": "B1 VL with Q24S, E79Q", "notes": "Human IgG1za / kappa, expressed in CHOK1SV cells; also called Var3; humanized variant 3 of CAN04"}, "B3": {"name": "hCAN04 Variant 7 (antibody, human IgG1, kappa, V domains shown)", "VH": "B1 VH with A28T, Q43K, N57Q", "VL": "B1 VL", "notes": "Human IgG1za / kappa, expressed in CHOK1SV cells; also called Var7; humanized variant 7 of CAN04"}, "B4": {"name": "hCAN04 Variant 1 (antibody, human IgG1, kappa, V domains shown)", "VH": "B1 VH with T30S", "VL": "B1 VL with Q24S, E79Q", "notes": "Human IgG1za / kappa, expressed in CHOK1SV cells; also called Var1; humanized variant 1 of CAN04"}, "B5": {"name": "hCAN04 Variant 9 (antibody, human IgG1, kappa, V domains shown)", "VH": "B1 VH with T30S", "VL": "B1 VL with Y71F", "notes": "Human IgG1za / kappa, expressed in CHOK1SV cells; also called Var9; humanized variant 9 of CAN04"}, "B6": {"name": "hCAN04 Variant 8 (antibody, human IgG1, kappa, V domains shown)", "VH": "B1 VH with A28T, Q43K, N57Q, L70I", "VL": "B1 VL", "notes": "Human IgG1za / kappa, expressed in CHOK1SV cells; also called Var8; humanized variant 8 of CAN04"}, "B7": {"name": "hCAN04 Variant 12 (antibody, human IgG1, kappa, V domains shown)", "VH": "B1 VH with A28T, Q43K, N57Q, L70I", "VL": "B1 VL with Y71F", "notes": "Human IgG1za / kappa, expressed in CHOK1SV cells; also called Var 12; humanized variant 12 of CAN04"}, "B8": {"name": "hCAN04 Variant 5 (antibody, human IgG1, kappa, V domains shown)", "VH": "B1 VH with T30S", "VL": "B1 VL", "notes": "Human IgG1za / kappa, expressed in CHOK1SV cells; also called Var5; humanized variant 5 of CAN04"}, "B9": {"name": "hCAN04 Variant 4 (antibody, human IgG1, kappa, V domains shown)", "VH": "B1 VH with A28T, Q43K, N57Q, L70I", "VL": "B1 VL with Q24S, E79Q", "notes": "Human IgG1za / kappa, expressed in CHOK1SV cells; also called Var4; humanized variant 4 of CAN04"}, "B10": {"name": "hCAN04 Variant 11 (antibody, human IgG1, kappa, V domains shown)", "VH": "B1 VH with A28T, Q43K, N57Q", "VL": "B1 VL with Y71F", "notes": "Human IgG1za / kappa, expressed in CHOK1SV cells; also called Var11; humanized variant 11 of CAN04"}, "B11": {"name": "hCAN04 Variant 2 (antibody, human IgG1, kappa, V domains shown)", "VH": "B1 VH", "VL": "B1 VL with Q24S, E79Q", "notes": "Human IgG1za / kappa, expressed in CHOK1SV cells; also called Var2; humanized variant 2 of CAN04"}, "B12": {"name": "hCAN04 Variant 10 (antibody, human IgG1, kappa, V domains shown)", "VH": "B1 VH", "VL": "B1 VL with Y71F", "notes": "Human IgG1za / kappa, expressed in CHOK1SV cells; also called Var10; humanized variant 10 of CAN04"}, "B13": {"name": "CAN04 (murine) as listed in Table 3 (antibody, human IgG1, kappa, V domains shown)", "VH": "QVQLQQSGPELLKPGASVKISCKASGYAFSSSWMNWVKQRPGKGLEWIGRIYPGDGNTHYSGKFKGKATLTADKSSSIAYMQLSSLTSEDSAVYFCGEGYLDPMDYWGQGTSVTVSS", "VL": "DIQMTQTTSSLSASLGDRVTISCSASQGINNYLNWYQQKPDGTVKLLIHYTSGLHAGVPSRFSGSGSGTDYSLTISNLEPEDVATYYCQQYSILPWTFGGGTKLEIKR", "notes": "Whether the footnotes apply to the row labelled '(murine)' is not certain"}, "B14": {"name": "CAN04 (antibody, V domains shown)", "VH": "B13 VH", "VL": "B13 VL", "notes": "Murine-derived monoclonal IgG; It was PE-conjugated on primary cells and AF488-labelled for confocal microscopy; also called exemplary antibody of the invention"}},
  "note": "Changes are numbered by the printed parent chain.",
  "data": [
    {"biological_target": "T1, recombinant hIL1RAP 21-367 (human, UniProt Q9NPH3 21-367)", "T1 construct": "range 21-367; also called Rec hIL1RAP Domain123 (aa21-367); Domain123", "experiment": "indirect ELISA on coated hIL1RAP 21-367, three-fold dilutions from 3.5 nM", "method": "An indirect ELISA assay was performed. All samples were analysed in duplicate. Nunc-MaxiSorp 96 Micro Well™ Plates were coated with 100 ng of recombinant hIL1RAP 21-367 (100 μl/well) diluted in 0.01M PBS, pH 7.4, and incubated overnight at 4° C. Plates were washed with ELISA washing buffer (0.01M PBS, 0.05% Tween 20, pH 7.4) followed by a blocking step using 150 μl/well of ELISA blocking solution (PBS, 0.5% BSA, 0.05% Tween 20, pH 7.4). After 1 h incubation at room temperature (RT) on agitation the plates were washed again using ELISA washing buffer. Samples were diluted in three fold serial dilution (ranging from 1000 ng/ml to 0.5 ng/ml) in ELISA blocking solution and then transferred to the ELISA plate, 100 μl/well. Plates were incubated at RT for 1 h on agitation and then washed with ELISA washing solution. 100 μl/well of rabbit anti-mouse IgG conjugated to Alkaline Phosohatase (DAKO, 1:1000) was added and incubated 1 hour at RT on agitation. The plates were washed followed by addition of substrate (4-Nitrophenyl phosphatise disodium salt hexahydrate, SIGMA, 1 mg/ml), 100 μl/well. The plates were thereafter incubated at RT on agitation and absorbance at 405 nm measured consecutively for 30 min. Absorbance at 0 min was taken as background signal.\nAn indirect ELISA assay was performed as described above with the alteration that the samples were diluted in a three-fold serial dilution starting at 3.5 nM and run in replicates of four.", "units": {"Kd": "pM"}, "values": [
      {"binder": "B1", "Kd": 173},
      {"binder": "B2", "Kd": 450},
      {"binder": "B3", "Kd": 526},
      {"binder": "B4", "Kd": 125},
      {"binder": "B5", "Kd": 210},
      {"binder": "B6", "Kd": 402},
      {"binder": "B7", "Kd": 620},
      {"binder": "B8", "Kd": 135},
      {"binder": "B9", "Kd": 470},
      {"binder": "B10", "Kd": 504},
      {"binder": "B11", "Kd": 171},
      {"binder": "B12", "Kd": 301},
      {"binder": "B13", "Kd": 88}
    ]},
    {"biological_target": "T2, human IL1RAP (analyte of the Biacore study) (human, UniProt Q9NPH3 21-367, limits assumed)", "T2 construct": "The methods say only 'the analyte (100 nM)'; The result sentence names it human IL1RAP; also called IL1-RAP protein; the analyte", "experiment": "SPR (Biacore T200), antibody captured on anti-mouse IgG, analyte 100 nM, 25 C", "method": "Goat anti-mouse IgG was immobilized on a CM5 chip according to the technical manual of capture kit and standard operation principle of BIAcore T200 (Biacore Life Sciences, GE Healthcare Europe GmbH, Uppsala, Sweden).\nThe capture molecule surface was regenerated after each binding cycle using the manufacturer's recommended conditions.\nAfter five cycles of start-up, each antibody (100 nM) was injected at a flow rate of 30 μl/min, for 120 s, at the start of the cycle; then the analyte (100 nM) was injected at a flow rate of 30 μl/min, for 120 s, followed by monitoring the dissociation phase for 300 s.", "units": {"Kd": "pM", "koff": "s⁻¹", "kon": "M⁻¹ s⁻¹"}, "values": [
      {"binder": "B14", "Kd": 110, "koff": "4.72e-05", "kon": 427000}
    ]}
  ]
}
